Test results taken from patent US20210198640A1 (DENALI THERAPEUTICS, published 2021).

B1: Clone CH3C.3.2-1 (designed binder)
chain: APELLGGPSVFLFPPKPKDTLMISRTPEVTCVVVDVSHEDPEVKFNWYVDGVEVHNAKTKPREEQYNSTYRVVSVLTVLHQDWLNGKEYKCKVSNKALPAPIEKTISKAKGQPREPQVYTLPPSRDELTKNQVSLTCLVKGFYPSDIAVEWESLGHVWVNFKTTPPVLDSDGSFFLYSKLTVPKSTWQQGWVFSCSVMHEALHNHYTQKSLSLSPGK
notes: modified Fc polypeptide
B2: Clone CH3C.25 (designed binder)
chain: APELLGGPSVFLFPPKPKDTLMISRTPEVTCVVVDVSHEDPEVKFNWYVDGVEVHNAKTKPREEQYNSTYRVVSVLTVLHQDWLNGKEYKCKVSNKALPAPIEKTISKAKGQPREPQVYTLPPSRDELTKNQVSLTCLVKGFYPSDIAVEWESMGHVWVGYKTTPPVLDSDGSFFLYSKLTVDKSTWQQGWVFSCSVMHEALHNHYTQKSLSLSPGK
notes: modified Fc polypeptide
B3: Clone CH3C.21 (designed binder)
chain: APELLGGPSVFLFPPKPKDTLMISRTPEVTCVVVDVSHEDPEVKFNWYVDGVEVHNAKTKPREEQYNSTYRVVSVLTVLHQDWLNGKEYKCKVSNKALPAPIEKTISKAKGQPREPQVYTLPPSRDELTKNQVSLTCLVKGFYPSDIAVEWESLGLVWVGYKTTPPVLDSDGSFFLYSKLTVPKSTWQQGWVFSCSVMHEALHNHYTQKSLSLSPGK
notes: modified Fc polypeptide
B4: Clone CH3C.34 (designed binder)
chain: APELLGGPSVFLFPPKPKDTLMISRTPEVTCVVVDVSHEDPEVKFNWYVDGVEVHNAKTKPREEQYNSTYRVVSVLTVLHQDWLNGKEYKCKVSNKALPAPIEKTISKAKGQPREPQVYTLPPSRDELTKNQVSLTCLVKGFYPSDIAVEWESLGLVWVFSKTTPPVLDSDGSFFLYSKLTVPKSTWQQGWVFSCSVMHEALHNHYTQKSLSLSPGK
notes: modified Fc polypeptide
B5: recombinant cyno TfR ectodomain (ECD), biotinylated (receptor)
chain: CKGVEPKTECERLAGTESPAREEPEEDFPAAPRLYWDDLKRKLSEKLDTTDFTSTIKLLNENLYVPREAGSQKDENLALYIENQFREFKLSKVWRDQHFVKIQVKDSAQNSVIIVDKNGGLVYLVENPGGYVAYSKAATVTGKLVHANFGTKKDFEDLDSPVNGSIVIVRAGKITFAEKVANAESLNAIGVLIYMDQTKFPIVKADLSFFGHAHLGTGDPYTPGFPSFNHTQFPPSQSSGLPNIPVQTISRAAAEKLFGNMEGDCPSDWKTDSTCKMVTSENKSVKLTVSNVLKETKILNIFGVIKGFVEPDHYVVVGAQRDAWGPGAAKSSVGTALLLKLAQMFSDMVLKDGFQPSRSIIFASWSAGDFGSVGATEWLEGYLSSLHLKAFTYINLDKAVLGTSNFKVSASPLLYTLIEKTMQDVKHPVTGRSLYQDSNWASKVEKLTLDNAAFPFLAYSGIPAVSFCFCEDTDYPYLGTTMDTYKELVERIPELNKVARAAAEVAGQFVIKLTHDTELNLDYERYNSQLLLFLRDLNQYRADVKEMGLSLQWLYSARGDFFRATSRLTTDFRNAEKRDKFVMKKLNDRVMRVEYYFLSPYVSPKESPFRHVFWGSGSHTLSALLESLKLRRQNNSAFNETLFRNQLALATWTIQGAANALSGDVWDIDNEF

Experiments:
[1] = target: T1, human transferrin receptor protein 1 (TfR) (human, UniProt P02786 89-760, limits assumed); assay: ELISA, TfR coated on plate, Fc-Fab fusion
T1 construct: also called human TfR; hTfR

[2] = target: T1, human transferrin receptor protein 1 …; assay: selection from soft randomization libraries
CH3C.35.N153.bi = assay: SPR, TfR ECD captured, clone injected, steady state

Binder | binding result [2] | other results
B1 |  | binding result [1]: binds
B2 | binds | 
B3 | binds | 
B4 | binds | 
B5 |  | Kd (CH3C.35.N153.bi): 3.3 µM
